Source: patent US20260167959A1, “APTAZYME-BASED REGULATABLE GENE EXPRESSION SYSTEMS” (REJUVENATE BIO INC, priority 2022, published 2026)

Test system: Renilla luciferase RNA
Assay: Barcoded aptazyme variant library screen: un-cleaved Renilla luciferase RNA by barcode read counts, HEK293-T cells
Format: cell-based
Settings: un-cleaved Renilla luciferase RNA, HEK293-T cells cultured with 1 mM theophylline (ON) over without theophylline (OFF); barcode read counts, triplicate
Source text: Based on the findings from Example 1, an aptazyme variant library was generated from the T3H48 ribozyme with one of seven variant theophylline aptamers inserted sequentially after each nucleotide of the DNA sequence encoding the T3H48 ribozyme sequence. […] The seven variant theophylline aptamers vary in their communication channels, which are the ribonucleotides of the aptamer that attach to the ribozyme sequence (see, Table 2).
The library was barcoded with unique sequences of nine nucleotides flanked by forward and reverse primer amplification sequences.
The aptazyme library was then PCR amplified and cloned into the psiCHECK™-2 dual luciferase vector in the 3′ UTR of the Renilla luciferase gene. […] The next day, the cells were isolated followed by DNA and RNA extraction using standard methods. The purified RNA was then converted to cDNA and the barcoded portion of the aptazyme library was PCR amplified. Similarly, the DNA was PCR amplified and all the samples were sequenced. All experimental conditions (with theophylline and without theophylline) were performed in triplicate. The read count for each barcode was determined with a custom build code and the data was normalized to identify the un-cleaved fractions of the Renilla luciferase RNA from cells that were cultured in the presence or absence of theophylline for each aptazyme, which was used to obtain the fold-change between ON- and OFF-states (FIG. 2).

## RA215 (DNA GCTGTCACCGGATGTGCTTTCCGGTACGTGAGGTCCGTGAGGACGAAACAGC; expressed or natural sequence)
  Fold change in RNA expression between the ON state and the OFF state: 1.2 fold

B1: RA262 (nucleic acid)
DNA: GCTGTCACCGGAATACCAGCATCGTCTTGATGCCCTTGGAAGTCCGGTCTGATGAGTCCCATAAGGACGAAACAGC
modifications: expressed or natural sequence
  Fold change in RNA expression between the ON state and the OFF state: 1.1 fold

B2: RA261 (nucleic acid)
DNA: GCGCGTCCTGGATTCGCGGAAACGCGTACATCCAGCTGACGAGTCCCAACGAGAATACCAGCATCGTCTTGATGCCCTTGGAAGTCTCGATAGGACGAAACGCGC
modifications: expressed or natural sequence
  Fold change in RNA expression between the ON state and the OFF state: 1.1 fold

B3: RA258 (nucleic acid)
DNA: GCGCGTCCTGGATTAGTGATACCAGCATCGTCTTGATGCCCTTGGCAGCACTCGCGGAAACGCGTACATCCAGCTGACGAGTCCCAAATAGGACGAAACGCGC
modifications: expressed or natural sequence
  Fold change in RNA expression between the ON state and the OFF state: 1.1 fold

B4: RA268 (nucleic acid)
DNA: GCGCGTCCTGGATTCGCGGAAACGCGTACATCCAGCTGACGAGTCCCAAATAGGACGAAACGCGGAGAATACCAGCATCGTCTTGATGCCCTTGGAAGTCTCC
modifications: expressed or natural sequence
  Fold change in RNA expression between the ON state and the OFF state: 1.0 fold

B5: RA267 (nucleic acid)
DNA: GCGCGTCCTGGATTCGCGGAAACGCGTACATCCAGCTGACGAGTGGAATACCAGCATCGTCTTGATGCCCTTGGAAGTCCCCCAAATAGGACGAAACGCGC
modifications: expressed or natural sequence
  Fold change in RNA expression between the ON state and the OFF state: 1.0 fold

B6: RA257 (nucleic acid)
DNA: GCGCGTCCTGGATTCGCGGAAACGCCGGAATACCAGCATCGTCTTGATGCCCTTGGAAGTCCGGTACATCCAGCTGACGAGTCCCAAATAGGACGAAACGCGC
modifications: expressed or natural sequence
  Fold change in RNA expression between the ON state and the OFF state: 1.1 fold

B7: RA269 (nucleic acid)
DNA: GCGCGTCCTGGATTCGCGGAAACGCGAGAATACCAGCATCGTCTTGATGCCCTTGGAAGTCTTACATCCAGCTGACGAGTCCCAAATAGGACGAAACGCGC
modifications: expressed or natural sequence
  Fold change in RNA expression between the ON state and the OFF state: 1.0 fold

B8: RA264 (nucleic acid)
DNA: GCGCGTCCTGGATTCGCGGAAACGCGTACATCCAGCTAGAATACCAGCATCGTCTTGATGCCCTTGGAAGTCTGACGAGTCCCAAATAGGACGAAACGCGC
modifications: expressed or natural sequence
  Fold change in RNA expression between the ON state and the OFF state: 1.0 fold

B9: RA251 (nucleic acid)
DNA: GCGCGTCCTGGACCGGAATACCAGCATCGTCTTGATGCCCTTGGAAGTCCGGTTCGCGGAAACGCGTACATCCAGCTGACGAGTCCCAAATAGGACGAAACGCGC
modifications: expressed or natural sequence
  Fold change in RNA expression between the ON state and the OFF state: 1.1 fold

B10: RA025 (nucleic acid)
DNA: GCGCGTCCCGAGAATACCAGCATCGTCTTGATGCCCTTGGAAGTCTCGTGGATTCGCGGAAACGCGTACATCCAGCTGACGAGTCCCAAATAGGACGAAACGCGC
modifications: expressed or natural sequence
  Fold change in RNA expression between the ON state and the OFF state: 2.5 fold

B11: RA265 (nucleic acid)
DNA: GCGCGTCCTGGATTCGCGGAAACGCGTACATCCAGCTGACGAGTCCCAAAGGAATACCAGCATCGTCTTGATGCCCTTGGAAGTCCTAGGACGAAACGCGC
modifications: expressed or natural sequence
  Fold change in RNA expression between the ON state and the OFF state: 1.0 fold

B12: RA266 (nucleic acid)
DNA: GCGCGTCCTGGATTCGCGGAAACGCGCGAGAATACCAGCATCGTCTTGATGCCCTTGGAAGTCTCGTACATCCAGCTGACGAGTCCCAAATAGGACGAAACGCGC
modifications: expressed or natural sequence
  Fold change in RNA expression between the ON state and the OFF state: 1.0 fold

B13: RA260 (nucleic acid)
DNA: GCGCGTCCTGGATTCGCGGAAACGCCGGAATACCAGCATCGTCTTGATGCCCTTGGAAGTCCGGCGTACATCCAGCTGACGAGTCCCAAATAGGACGAAACGCGC
modifications: expressed or natural sequence
  Fold change in RNA expression between the ON state and the OFF state: 1.1 fold

B14: RA252 (nucleic acid)
DNA: GCGCGTCCTGGATTCGCGGAAGTGATACCAGCATCGTCTTGATGCCCTTGGCAGCACTAACGCGTACATCCAGCTGACGAGTCCCAAATAGGACGAAACGCGC
modifications: expressed or natural sequence
  Fold change in RNA expression between the ON state and the OFF state: 1.1 fold

B15: RA255 (nucleic acid)
DNA: GCGCGTCCTGGATTCGCGGAAACGCGTACATCCAGCTGACGAGTCCCAAATAGGACGAAACCGGAATACCAGCATCGTCTTGATGCCCTTGGAAGTCCGGCGCGC
modifications: expressed or natural sequence
  Fold change in RNA expression between the ON state and the OFF state: 1.1 fold

B16: RA263 (nucleic acid)
DNA: GCGCGTCCTGGATTCGCGGAAACGCGTACATCCAGCTGACGAGTCCCAAAAGTGATACCAGCATCGTCTTGATGCCCTTGGCAGCACTTAGGACGAAACGCGC
modifications: expressed or natural sequence
  Fold change in RNA expression between the ON state and the OFF state: 1.1 fold

B17: RA254 (nucleic acid)
DNA: GCGCGTCCTGGATTCGCGGAAACGCGTACATCCAGCAGAATACCAGCATCGTCTTGATGCCCTTGGAAGTCTTGACGAGTCCCAAATAGGACGAAACGCGC
modifications: expressed or natural sequence
  Fold change in RNA expression between the ON state and the OFF state: 1.1 fold

B18: RA026 (nucleic acid)
DNA: GCGCGTCCTGGATTCGCGGAAACGCGTACATCCAGCTGACGAGTCCGAGAATACCAGCATCGTCTTGATGCCCTTGGAAGTCTCGCCAAATAGGACGAAACGCGC
modifications: expressed or natural sequence
  Fold change in RNA expression between the ON state and the OFF state: 2.4 fold

B19: RA253 (nucleic acid)
DNA: GCGCGTCCTGGATTCGCGGAAACGCGTACATGGAATACCAGCATCGTCTTGATGCCCTTGGAAGTCCCCAGCTGACGAGTCCCAAATAGGACGAAACGCGC
modifications: expressed or natural sequence
  Fold change in RNA expression between the ON state and the OFF state: 1.1 fold

B20: RA259 (nucleic acid)
DNA: GCGCGTCCTGGATTCGCGGAAACGCGTACATCCAGCTGACGAGTCCCAAATAGGACGAAAAGTGATACCAGCATCGTCTTGATGCCCTTGGCAGCACTCGCGC
modifications: expressed or natural sequence
  Fold change in RNA expression between the ON state and the OFF state: 1.1 fold

B21: RA256 (nucleic acid)
DNA: GCGCGTCCTGGATTCGCGGAAACGCGTACATGAGAATACCAGCATCGTCTTGATGCCCTTGGAAGTCTCCCAGCTGACGAGTCCCAAATAGGACGAAACGCGC
modifications: expressed or natural sequence
  Fold change in RNA expression between the ON state and the OFF state: 1.1 fold
